B1: full-length human basigin (receptor)
chain: AAGTVFTTVEDLGSKILLTCSLNDSATEVTGHRWLKGGVVLKEDALPGQKTEFKVDSDDQWGEYSCVFLPEPMGTANIQLHGPPRVKAVKSSEHINEGETAMLVCKSESVPPVTDWAWYKITDSEDKALMNGSESRFFVSSSQGRSELHIENLNMEADPGQYRCNGTSSKGSDQAIITLRVRSHLAALWPFLGIVAEVLVLVTIIFIYEKRRKPEDVLDDDDAGSAPLKSSGQHQNDKGKNVRQRNSS
modifications: labelled with Alexa Fluor 488 (protein-labelling kit)
B2: basigin ectodomain (domain or fragment)
chain: AAGTVFTTVEDLGSKILLTCSLNDSATEVTGHRWLKGGVVLKEDALPGQKTEFKVDSDDQWGEYSCVFLPEPMGTANIQLHGPPRVKAVKSSEHINEGETAMLVCKSESVPPVTDWAWYKITDSEDKALMNGSESRFFVSSSQGRSELHIENLNMEADPGQYRCNGTSSKGSDQAIITLRVRSHLAAL
modifications: labelled with Alexa Fluor 488 (protein-labelling kit)
B3: PfCSS–PfPTRAMP heterodimer (complex)
chain 1: QDEKSVKNICVCDFTDKLNFLPLEKTKILCELKPQYGEDIKIIANKEYEINCMNNSKVFCPLKDTFINNTNIKLYSPKLHFEIKDITHKGKNAALYYLKIDEEASDIFFSCSIKPKQVSGLLEGEVRVNLKKHINEEYSIFNEEEDVHVCDFSKGNLDITPSAGFYLKNSRNVSCIYRVIPNKLFLIKLPKLDIVTEKLLPSIVNCLSEFSFINFTLKHVQEGDNYISFNVIFGEFKKHFNLTCSLDLSDFQQEPCNLGKTANITFIFSK
chain 2: CNLKVRNNWEHFLQVYQNNGNFKMEILEPECTIQKNLPSEEEKEEFIDFDRKELLLHDFVVIKNSQFTDEKTLELYLSKEENNKSYLMLTFYLGDLKLMIGHNSPYEISLILNVATVNKNMSNCKNNSYNIVLLKTTDVFNTSDLEILEGPIQFSLGKSSGAFRINVTNFFLNNTWKAFTKDKISFLIKPEENCYTILENKINKPQLLIEKKTTFYSEWGEWSNCSMDCDHPDNVQIRERECIHPSGDCFKGDLKESRPCIIPLPPCNELFSHKDNST
B4: PfRH5 (natural protein)
chain: ENAIKKTKNQENNLTLLPIKSTEEEKDDIKNGKDIKKEIDNDKENIKTNNAKDHSTYIKSYLNTNVNDGLKYLFIPSHNSFIKKYSVFNQINDGMLLNEKNDVKNNEDYKNVDYKNVNFLQYHFKELSNYNIANSIDILQEKEGHLDFVIIPHYTFLDYYKHLSYNSIYHKSSTYGKYIAVDAFIKKINEAYDKVKSKCNDIKNDLIATIKKLEHPYDINNKNDDSYRYDISEEIDDKSEETDDETEEVEDSIQDTDSNHTPSNKKKNDLMNRAFKKMMDEYNTKKKKLIKCIKNHENDFNKICMDMKNYGTNLFEQLSCYNNNFCNTNGIRYHYDEYIHKLILSVKSKNLNKDLSDMTNILQQSELLLTNLNKKMGSYIYIDTIKFIHKEMKHIFNRIEYHTKIINDKTKIIQDKIKLNIWRTFQKDELLKRILDMSNEYSLFITSDHLRQMLYNTFYSKEKHLNNIFHHLIYVLQMKFNDVPIKMEYFQTYKKNKPLTQ

Experiments:
[1] = biological target: T1, PfRCR complex (P. falciparum, UniProt Q8IFM8;O97302); assay: MST; replicate 2
[2] = biological target: T1, PfRCR complex; assay: MST; replicate 1
[3] = biological target: T2, PfRIPR tail (P. falciparum, UniProt O97302 717-1086, N964Q | N1021Q); assay: SPR; replicate 2
[4] = biological target: T3, PfRIPR (P. falciparum, UniProt O97302 21-1086); assay: SPR; replicate 1
[5] = biological target: T2, PfRIPR tail; assay: SPR; replicate 1
[6] = biological target: T3, PfRIPR; assay: SPR; replicate 4
[7] = biological target: T2, PfRIPR tail; assay: SPR; replicate 4
[8] = biological target: B2; assay: MST; replicate 2
[9] = biological target: B1; assay: MST; replicate 2

B1 gave a Kd [1] of 0.181 µM and a Kd [2] of 0.149 µM.

B2 gave a Kd [1] of 0.184 µM and a Kd [2] of 0.125 µM.

B3 showed a Kd [3] of 5.37 µM, a Kd [4] of 2.97 µM and a Kd [5] of 2.79 µM. The Kd [6] was 4.32 µM and the Kd [7] was 4.9 µM.

With B4 the Kd [8] was 0.151 µM and the Kd [9] was 0.171 µM.
